Like-named read-outs stand apart in the source and are kept apart here.
Experiments:
Assay in all cases: SPR; BIAcore X100; biotinylated Avi-tagged TβRI or TβRII captured on neutravidin-coupled CM-5 chip (max 150 RU); full-length TGM injected as twofold dilution series; HBS-EP, 25 mM HEPES, 150 mM NaCl, 0.005% P20, pH 7.4; 100 µL/min; 1:1 kinetic model
[1] = biological target: Biotinylated Avi-tagged human TβRI extracellular domain (human) (UniProt P36897)
[2] = biological target: Biotinylated Avi-tagged human TβRII extracellular domain (human) (UniProt P37173)
[3] = biological target: Biotinylated Avi-tagged human TβRI extracellular domain (human) (UniProt P36897); remark: listed apart in the source

Chain of Biotinylated Avi-tagged human TβRI extracellular domain (human) (P36897 34-126): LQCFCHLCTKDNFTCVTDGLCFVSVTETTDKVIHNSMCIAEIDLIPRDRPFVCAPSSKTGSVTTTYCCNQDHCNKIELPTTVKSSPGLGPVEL
Chain of Biotinylated Avi-tagged human TβRII extracellular domain (human) (P37173 23-166): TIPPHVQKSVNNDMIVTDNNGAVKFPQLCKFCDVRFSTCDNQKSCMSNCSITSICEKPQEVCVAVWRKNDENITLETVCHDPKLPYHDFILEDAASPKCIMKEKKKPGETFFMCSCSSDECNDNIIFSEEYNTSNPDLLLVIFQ

Substance | Kd [1] | Kd [2] | Kd [3]
TGM1 full-length (D1-5), recombinant (natural protein) | 90 nM | – | –
TGM4 full-length (D1-5), recombinant (natural protein) | 5 nM | 116000 nM | 3 to 5 nM

Source: paper PMC11723922
